In data set [1] the test system is 2LTRZFP-GFP (designed six-finger zinc finger protein fused to GFP). As to the kind of experiment: BLI. To be noted: BLI (BLItz, SA tips): 10 mM Tris-HCl pH 7.5, 90 mM KCl, 1 mM MgCl2, 90 uM ZnSO4, 5 mM DTT, 0.5 mM PMSF, temperature not stated; IN: 1:5 IN reaction buffer ….
The target of data set [2] is HIV-1 integrase (IN) (HIV-1) (UniProt P12497). Nature of the data set: BLI. Particulars: BLI (BLItz, SA tips): 10 mM Tris-HCl pH 7.5, 90 mM KCl, 1 mM MgCl2, 90 uM ZnSO4, 5 mM DTT, 0.5 mM PMSF, temperature not stated; IN: 1:5 IN reaction buffer ….
The test system of data set [3] is 2LTRZFP-GFP (designed six-finger zinc finger protein fused to GFP). As to the kind of experiment: competition BLI. To be noted: BLI (BLItz, SA tips): 10 mM Tris-HCl pH 7.5, 90 mM KCl, 1 mM MgCl2, 90 uM ZnSO4, 5 mM DTT, 0.5 mM PMSF, temperature not stated; IN: 1:5 IN reaction buffer ….
Data set [4] shares this test system. As to the kind of experiment: competition ELISA. Particulars: BLI (BLItz, SA tips): 10 mM Tris-HCl pH 7.5, 90 mM KCl, 1 mM MgCl2, 90 uM ZnSO4, 5 mM DTT, 0.5 mM PMSF, temperature not stated, IN: 1:5 IN reaction buffer ….

The sequence “AAATCTCTAGCAGTACTGGATGGGCTAATT (double strand) [ds2LTR (30 bp HIV-1 2-LTR circle junction)]” came in with a Kd in data set [1] of 40 nM. In data set [2], this sequence gave a Kd of 75 nM and a binding signal (nm BLI signal (0.55 without 2LTRZFP-GFP)) of 0.47. The binding signal (nm BLI signal (1.2 without competitor)) in data set [3] was 0.45. The sequence further yielded a binding signal in data set [4] of 62 % inhibition.

“TGACAGTGCTAGCGTATCATCTAGTCGACG (double strand) [dsNeg (30 bp irrelevant DNA)]”: in data set [3], the binding signal (nm BLI signal (1.2 without competitor)) was found to be 1. The same sequence yielded an inhibition of binding to immobilized ds2LTR in data set [4] (2 uM dsNeg as competitor against immobilized ds2LTR, OD 1.0 vs 1.3 uninhibited) of 22 % inhibition.

In general, Kd refers to the concentration at which binding is half-saturated. A higher Kd goes with a looser complex.

Source of the values: article PMC8001305.
